Measurements from PMC3947097 (Nature, 2013).
Values belong to the molecule of their own block, whether it stands above or below them.

Legend:
ACP (Escherichia coli) = ACP (Escherichia coli) (UniProt P0A6A8); settings: cited from earlier work
[1] = target: T1, His6-LpxD (wild-type E. coli LpxD acyltransferase) (E. coli, UniProt P21645 3-341); test: crystal structure
T1 sequence: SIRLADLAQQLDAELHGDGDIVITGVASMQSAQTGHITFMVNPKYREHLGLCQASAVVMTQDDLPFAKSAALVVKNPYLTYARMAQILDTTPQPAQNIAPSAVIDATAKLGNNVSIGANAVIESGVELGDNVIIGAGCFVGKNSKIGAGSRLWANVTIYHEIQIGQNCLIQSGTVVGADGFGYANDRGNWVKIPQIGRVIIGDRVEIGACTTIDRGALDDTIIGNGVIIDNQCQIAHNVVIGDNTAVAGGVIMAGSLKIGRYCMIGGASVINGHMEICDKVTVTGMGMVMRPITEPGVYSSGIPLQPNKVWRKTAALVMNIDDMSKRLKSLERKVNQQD

[2] = target: T2, His239Ala His6-LpxD (catalytically inactive) (E. coli, UniProt P21645 3-341, His239Ala); test: crystal structure
T2 sequence: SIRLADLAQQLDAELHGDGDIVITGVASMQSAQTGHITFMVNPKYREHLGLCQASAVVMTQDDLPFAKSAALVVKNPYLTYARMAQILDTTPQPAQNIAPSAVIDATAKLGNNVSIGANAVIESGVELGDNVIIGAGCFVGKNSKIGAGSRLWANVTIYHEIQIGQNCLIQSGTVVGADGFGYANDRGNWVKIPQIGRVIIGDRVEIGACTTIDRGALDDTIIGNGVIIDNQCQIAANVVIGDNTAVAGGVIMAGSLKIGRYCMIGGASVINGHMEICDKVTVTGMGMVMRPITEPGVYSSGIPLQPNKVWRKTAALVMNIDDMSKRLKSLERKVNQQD

Molecule: LpxD (from UniProt P21645)
Kd (ACP (Escherichia coli)): 59 nM

binding result [1]: binds
B1: holo-ACP (E. coli acyl-carrier-protein with 4'-phosphopantetheine) (natural protein)
chain: SHMSTIEERVKKIIGEQLGVKQEEVTNNASFVEDLGADSLDTVELVMALEEEFDTEIPDEEAEKITTVQAAIDYINGHQA
modifications: 4'-phosphopantetheine (4'-PPT) attached to Ser36, free terminal thiol

stoichiometry N [2]: 3 ACP per LpxD trimer
B2: R-3-hydroxymyristoyl-ACP (intact-acyl-ACP) (natural protein, E. coli)
chain: SHMSTIEERVKKIIGEQLGVKQEEVTNNASFVEDLGADSLDTVELVMALEEEFDTEIPDEEAEKITTVQAAIDYINGHQA
modifications: 4'-phosphopantetheine attached to Ser36, carrying R-3-hydroxymyristoyl (β-OH-C14) in thioester linkage
